Publication PMC5339894, “G196 epitope tag system: a novel monoclonal antibody, G196, recognizes the small, soluble peptide DLVPR with high affinity” (Scientific Reports, 2017)
“Also recorded” adds a separate entry of the source.

Columns and labels:
[1] = test system: cellular proteins of HeLa cells; experiment: Western blot cross-reaction with cellular proteins; format: cell-based, human; details: HeLa cell extracts, Western blot (lanes 3, 4)
Description: (§1) Short peptides and paired mAbs specific for the sequences of interest are powerful and irreplaceable tools for scientific research. To ascertain the possible versatility of G196-tag as a versatile fusion tag, we generated several human and yeast expression constructs in which the G196-tag was fused to reporter proteins. First, we expressed FLAG- and HA-tagged Emerald GFP (hereafter abbreviated FHG) as a reporter protein, C-terminally fused with a G196-tag (6P12, SDLVPRGSP) in HeLa cells.
(§2) Figure 5 Application of the G196 epitope tag system for scientific research. (a) Western blot and immunoprecipitation (IP) analysis of FLAG-HA-Emerald GFP (FHG) tagged with C-terminal G196-tag in HeLa cells using mAb G196. HeLa cells were transfected with FHG/pcDNA3 or FHG-G196/pcDNA3. After incubation for two days, the cells were lysed and subjected to Western blotting with anti-FLAG (M2) or G196 mAbs (left panel). These lysates were immunoprecipitated with anti-FLAG (M2) (lanes 7, 8) or G196 (lanes 9, 10) mAbs and subjected to Western blotting with anti-FLAG polyclonal antibody (right panel). (b) Immunofluorescence of GFP- and G196-tagged nuclear protein in HeLa cells using mAb G196. […] Protein extracts were separated by SDS-PAGE and detected with mAb G196 and anti-GFP polyclonal antibody (left panel). […] Asterisk indicates non-specific band also detected using the second Ab alone. […]

[2] = test system: FLAG-HA-Emerald GFP tagged with C-terminal G196-tag (FHG-G196); experiment: Western blot analysis of HeLa cell extracts; format: cell-based, human
Description: as §1, §2

[3] = test system: Atf1-G196-GFP at the tdh1 promoter; experiment: chromatin immunoprecipitation (ChIP) in fission yeast; format: cell-based; details: promoter of tdh1 gene (CRE consensus site); 3 μL mAb G196; qPCR
Experimental: Yeast cells were grown in YES medium at 30 °C to mid-log phase. After formaldehyde crosslinking and quenching, 1 × 10^8 cells were harvested to obtain 2 mL of soluble input extract. M-280 anti-mouse sheep antibody-conjugated magnetic beads (112-02, ThermoFisher Scientific) were used for immunoprecipitation: 200 μL of the beads were washed twice with extraction buffer (50 mM HEPES-KOH (pH 7.5), 140 mM NaCl, 1 mM EDTA, 1% Triton X-100, and 0.1% sodium deoxycholate), and then incubated in 1 mL of extraction buffer containing 3 μL of mAb G196 for 1 h at 4 °C. The beads were again washed twice with extraction buffer to remove unbound antibodies and incubated for 1 h with 800 μL of input extract at 4 °C. The relative concentrations of the target sequences were determined using SYBR Premix ExTaq (RR041A, TaKaRa Bio, Shiga, Japan) and a Thermal Cycler Dice Real Time System TP800 (TaKaRa Bio), according to the manufacturer’s instructions. The primers for detecting the −1 kb region were 5′-[…]-3′ and 5′-[…]-3′, and for the tdh1 CRE region the primers were 5′-[…]-3′ and 5′-[…]-3′.

[4] = test system: Atf1-G196-GFP; experiment: immunofluorescence of fission yeast cells; format: cell-based
Experimental: Yeast cells exponentially growing in YES medium at 30 °C were fixed with 3% formaldehyde and incubated at 18 °C for 30 min. After quenching with 250 mM glycine, the cells were washed with PBSEMS (PBS buffer with 1 mM EGTA, 1 mM MgSO4 and 1.2 M sorbitol), resuspended in PBSEMS containing 5 mg/mL Zymolyase 20T (07663-91, Nacalai Tesque) and 0.1% 2-mercaptoethanol, and incubated at 37 °C for 1 h. The cells were washed three times with PBSEMS and resuspended in PBSEMT (PBS with 1 mM EGTA, 1 mM MgSO4 and 1% Triton X-100) and incubated at room temperature for 30 sec. After washing three times with PBSEM (PBS with 1 mM EGTA and 1 mM MgSO4), the cells were incubated in PBSEMALM (PBS with 1 mM EGTA, 1 mM MgSO4, 0.1% sodium azide, 0.1 M L-lysine and 5% skim milk) for 30 min. The cells were resuspended in PBSEMALM containing G196 mAb (1:1000) and anti-GFP rabbit polyclonal antibody (1:1000). After overnight incubation at room temperature, cells were washed with PBSEMALM three times, then resuspended in PBSEMALM containing anti-mouse antibody conjugated with Alexa 594 (1:100) and anti-rabbit conjugated with Alexa 488 (1:100). After one-hour incubation, the cells were washed with PBSEMAL containing 5% skim milk three times and resuspended in PBS containing 0.1% sodium azide. The cell suspension was mixed with an equal amount of 1% low-melting point agarose with DAPI on glass plates.

B1: mAb G196: mouse mAb (IgG1) raised against GST protein bacterially expressed using the pGEX-2T vector (antibody, V domains shown)
VH: QVKLQESGAELVKPGASVKLSCKASGYTFTNYWMHWVKLRPGQGFEWIGEINPSNGGSNYNEKFKRKATLTVDKSSSTAYMQLSSLTSEDSAVFYCSIWDSYFDYWGQGTTLTVSS
VL: NIVMTQSPKSMSMSVGERVTLTCKASENVVTYVSWYQQKPEQSPKLLIYGASNRYTGVPDRFTGSGSATDFTLTISSVQAEDLADYHCGQGYSYPYTFGGGTKLEIK
- cross-reaction with cellular proteins [1]: did not cross-react with cellular proteins; also recorded: did not (cross-)react with cellular proteins
- detection of FHG (without G196-tag) by Western blot ([2]; HeLa cells transfected with FHG (lane 3)): not detected
- detection of FHG-G196 by Western blot ([2]; HeLa cells transfected with FHG-G196, two days (lanes 2, 4)): detected as a single band; also recorded: as a single band at the proper molecular weight
- ChIP of Atf1 [3]: enriched the Atf1 protein at the promoter of the tdh1 gene
- immunofluorescence recognition of Atf1 ([4]; G196- and GFP-tagged Atf1, mAb 1:1000): recognized G196- and GFP-tagged Atf1
- immunofluorescence of Atf1 compared with anti-GFP polyclonal ([4]; versus polyclonal anti-GFP antibody): comparable to that of a polyclonal anti-GFP antibody
